The numbers were not newly measured in PMC2830912, which cites them from elsewhere.

What is called Kd is the free concentration of one partner at which half of the binding sites on the other are occupied at equilibrium, for simple one-to-one binding.

The target in this data set is Pol III alpha subunit (Escherichia coli) (UniProt P10443).
Pol III alpha subunit (Escherichia coli), sequence (P10443 whole entry): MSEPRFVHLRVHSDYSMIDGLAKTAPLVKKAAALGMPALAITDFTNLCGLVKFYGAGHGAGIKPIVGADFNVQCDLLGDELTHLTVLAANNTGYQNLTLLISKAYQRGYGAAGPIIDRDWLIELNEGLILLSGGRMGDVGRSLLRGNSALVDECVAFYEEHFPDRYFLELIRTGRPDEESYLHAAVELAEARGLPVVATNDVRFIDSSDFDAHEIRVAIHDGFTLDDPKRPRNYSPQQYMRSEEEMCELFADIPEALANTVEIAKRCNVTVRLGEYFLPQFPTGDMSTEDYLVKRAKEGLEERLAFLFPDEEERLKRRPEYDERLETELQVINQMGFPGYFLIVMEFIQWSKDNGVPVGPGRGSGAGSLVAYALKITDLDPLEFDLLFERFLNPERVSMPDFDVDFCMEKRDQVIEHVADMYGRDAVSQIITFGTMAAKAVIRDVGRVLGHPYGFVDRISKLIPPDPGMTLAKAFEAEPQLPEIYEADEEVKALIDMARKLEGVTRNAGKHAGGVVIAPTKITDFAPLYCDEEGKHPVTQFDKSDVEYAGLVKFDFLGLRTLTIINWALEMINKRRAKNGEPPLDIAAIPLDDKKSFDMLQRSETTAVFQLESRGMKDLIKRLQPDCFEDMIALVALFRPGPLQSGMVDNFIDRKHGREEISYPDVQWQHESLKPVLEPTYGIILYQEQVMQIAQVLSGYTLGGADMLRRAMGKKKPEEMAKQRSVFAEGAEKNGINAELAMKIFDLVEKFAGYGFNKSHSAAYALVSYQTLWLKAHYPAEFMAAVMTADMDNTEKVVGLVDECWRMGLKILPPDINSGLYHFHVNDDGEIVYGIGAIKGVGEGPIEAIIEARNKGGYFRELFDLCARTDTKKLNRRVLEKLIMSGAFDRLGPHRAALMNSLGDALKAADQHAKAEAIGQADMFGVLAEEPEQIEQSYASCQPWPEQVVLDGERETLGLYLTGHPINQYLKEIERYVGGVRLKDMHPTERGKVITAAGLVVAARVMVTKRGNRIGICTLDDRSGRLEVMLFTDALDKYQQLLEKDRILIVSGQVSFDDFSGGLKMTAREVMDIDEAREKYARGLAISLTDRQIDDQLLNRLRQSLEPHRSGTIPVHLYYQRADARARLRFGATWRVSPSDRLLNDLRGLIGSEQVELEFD

DnaX tau subunit, sequence (P06710 2-643): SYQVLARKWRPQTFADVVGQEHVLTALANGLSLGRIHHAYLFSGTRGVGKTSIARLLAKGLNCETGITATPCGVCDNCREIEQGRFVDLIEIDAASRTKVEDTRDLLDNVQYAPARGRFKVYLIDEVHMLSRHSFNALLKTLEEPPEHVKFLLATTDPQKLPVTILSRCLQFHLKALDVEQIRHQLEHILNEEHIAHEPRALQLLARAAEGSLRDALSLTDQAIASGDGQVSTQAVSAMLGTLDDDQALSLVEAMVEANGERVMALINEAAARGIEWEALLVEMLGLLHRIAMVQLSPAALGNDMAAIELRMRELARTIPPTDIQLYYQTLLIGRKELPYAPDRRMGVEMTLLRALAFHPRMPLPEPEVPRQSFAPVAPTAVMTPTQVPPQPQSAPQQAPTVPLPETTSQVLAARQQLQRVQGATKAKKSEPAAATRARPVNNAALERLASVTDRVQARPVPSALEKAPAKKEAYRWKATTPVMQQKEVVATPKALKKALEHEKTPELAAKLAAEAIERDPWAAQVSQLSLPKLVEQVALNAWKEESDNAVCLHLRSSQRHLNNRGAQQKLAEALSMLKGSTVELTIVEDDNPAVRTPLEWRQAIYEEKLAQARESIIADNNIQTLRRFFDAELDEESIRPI

In the case of DnaX tau subunit (from UniProt P06710), the Kd is 0.07 nM.
